Test results reported in PMC7771667, “Discovery of potent and specific inhibitors targeting the active site of MMP-9 from the engineered SPINK2 library” (PLoS ONE, 2020).

How the values were obtained:
[1] = target: T1, active MMP-9_Cat-H6 (human, UniProt P14780 107-449); assay: SEC; MMP-9 (25 μM) incubated with TIMP-1 or M91005 (75 μM; molar ratio 3:1) in PBS for 1 h at 4°C; ACQUITY UPLC BEH200 column in PBS; shift of the retention time; conditions: both partners purified
T1 construct: human MMP-9 catalytic domain with the Fn-like domain, without the HPX domain; pro-form residues 20-449; not shown: His6, C-terminal, kept
T1 sequence (P14780 107-449): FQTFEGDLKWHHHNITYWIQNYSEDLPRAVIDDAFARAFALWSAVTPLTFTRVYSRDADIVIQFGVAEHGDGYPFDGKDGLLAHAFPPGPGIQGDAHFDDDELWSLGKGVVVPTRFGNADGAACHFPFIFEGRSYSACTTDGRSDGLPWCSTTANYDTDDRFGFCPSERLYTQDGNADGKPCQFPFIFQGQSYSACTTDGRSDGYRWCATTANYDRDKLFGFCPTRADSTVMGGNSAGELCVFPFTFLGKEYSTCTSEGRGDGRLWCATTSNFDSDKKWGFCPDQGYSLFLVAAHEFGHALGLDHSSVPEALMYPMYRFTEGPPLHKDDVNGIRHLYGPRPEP

[2] = target: T2, MMP-9_Cat_E402Q-H6 (human, UniProt P14780 107-449, E402Q); assay: as above; conditions: both partners purified
T2 construct: human MMP-9 catalytic domain with the Fn-like domain, without the HPX domain; pro-form residues 20-449; also called pro-peptide-removed E402Q mutant; active-site mutant; source: HEK293F, transiently expressed, purified (HisTrap excel), pro-peptide removed with MMP-3; not shown: His6, C-terminal, kept
T2 sequence (P14780 107-449 E402Q): as the sequence (P14780 107-449) above, with E296Q counted along it

B1: Human TIMP-1 (natural protein)
chain: not shown
notes: signal peptide in the construct; human TIMP-1 residues 1-207
Question: Does B1 bind [1]?
Answer: binds

Question: Does B1 bind [2]?
Answer: binds
